In patent publication KR20190140944A:
pKd: −log10 of the molar value.

Legend:
[1] = biological target: HER2 및 HER3 (ErbB-2 및 ErbB-3 양성 세포 상에 함께 발현) (human) (UniProt P04626); assay: steady-state cell affinity, 125I-labelled IgG on SK-BR-3 cells at 4 C; mean of 3 assays
[2] = biological target: HER2 및 HER3 (ErbB-2 및 ErbB-3 양성 세포 상에 함께 발현) (human) (UniProt P04626); assay: steady-state cell affinity, 125I-labelled IgG on BT-474 cells at 4 C; mean of 3 assays

- pKd [1]: 8.70
- pKd [2]: 8.49
Substance: PB4188 (bispecific antibody)
